experiment: soluble on expression in E. coli; label from the status in PepcDB or PDB records

Sequence	soluble on expression in E. coli
SSFLGGLFGPACEIDVILNDAESRKTAELKTEEGKLEKHYLFYDGESVSGKVNINVKQTSKRLEHQGIRIEFVGQIELFSDKSNTHEFVNLVKELALPGELTQNRSYDFEFMQVEKPYESYVGANVRLRYFLKVTIVRRLSDLVKEYDLIVHQLATYPDVNNSIKMEVGIEDCLHIEFEYNKSKYHLKDVIVGKIYFLLVRIKIQHMELQLIKKEMTGIGPSTTTETETVAKYEIMEGAPVKGESIPIRLFLAGYDLTPTMRDVNKKFSVRYFLNLVLVDEEDRRYFKQQEIVLWRKAPEKMRKRNFHQRYESPEPRPSLSAEQPEM	soluble
SSLCERAASGSALLWPRVLLFGDSITQFSFQQGGWGSLLADRLVRKCDVLNRGFSGYNTRWAKIILPRLIRKGPGMENPVAVTIFFGANDSSLKDENPKQHVPLDEYSANLRDMVQYLRSVDVPRERVILITPPPLCEAAWEKECVLKGCKLNRLNSVVGEYANACLQVARDCGTDVLDLWTLMQKDSQDFSSYLSDGLHLSPMGNEFLFLNLCPLLDKKVSSLPWLLPYWKDVEEAKPELSLLGDGDY	soluble
SSLLDGLASSPRAPLQSSKARMKKLPKKSQNEKYRLKYLRLRKAAKATVFENAAICDEIARLEEKFLKAKEERRYLLKKLLQLQALTEGEVQAAAPSHSSSLPLTYGVASSVGTIQGAGPISGPSTGAEEPFGKKTKKEKKEKGKENNKLEVLKKTCKKKKMAGGARKLVQPIALDPSGRPVFPIGLGGLTVYSLGEIITDRPGFHDESAIYPVGYCSTRIYASMKCPDQKCLYTCQIKDGGVQPQFEIVPEDDPQNAIVSSSADACHAELLRTISTTMGKLMPNLLPAGADFFGFSHPAIHNLIQSCPGARKCINYQWVKFDVCKPGDGQLPEGLPENDAAMSFEAFQRQIFDEDQNDPLLPGSLDLPELQPAAFVSSYQPMYLTHEPLVDTHLQHLKSPSQGSPIQSSD	soluble
SSLPLNAIEPCVICQGRPKNGCIVHGKTGHLMACFTCAKKLKKRNKPCPVCRQPIQMIVLTYFP	soluble
SSSIKVECVIKEKNEVGESPVWEEKDSSLLYVDITGQKVSRWSSLTKQIESMNTEKLVGCVVPRQAGGYVIAEGTRFAFVDWVKRSITAVAEVNEKPNTRFNDGKVDPAGRFFAGTMSMDMKPDVVDAALYNLQPDHSVVRHFDQVHLSNGLDWSLDHRVFYYIDSLAFMVEAFDYDIQTGGLSNRRTVYKMEKDEGIPDGMCIDTEGKLWVACFNGGRVLRIDPQTGKRLQTVKLPAERITSCCFGGKDYSDLYITSAYIGMDAEALAKQPEAGCTFKVTGLGVKGIPPYSYTG	soluble
STNNNPAPLLGFRIAHLLEQEPDTKDLTINVKTEILKHEFGPIKSSFSFSPHKFFEEDVKKQELYFFLIAVGIEEDDAKLMMTDMIFYVLGNIDELRGVLTLLLKVQFPSFEPIEEH	soluble
STRERLLSALEDLEVLSRELIEMLAISRNQKLLQAGEENQVLELLIHRDGEFQELMKLALNQGKIHHEMQVLEKEVEKRDSDIQQLQKQLKEAEQILATAVYQAKEKLKSIEKARKGAISSEEIIKYAHRISASNAVCAPLTWVPGDPRRPYPTDLEMRSGLLG	not soluble
STRFPGVAIYLVEPRMGRSRRAFLTGLARSKGFRVLDACSSEATHVVMEETSAEEAVSWQERRMAAAPPGCTPPALLDISWLTESLGAGQPVPVECRHRLEVAGPRKGPLSPAWMPAYAC	soluble
STSGTSVINDKVLQYETFISEVLRRDLQKVLEQRDAVYEKIAQYLQLKNTIQSIQGSGSKELKTDVDLGCNFYVQAHVPDASRIYVAVGYGFFVEFTHVEALKFIEKKTNQLTEYTEVLTKDAAKIKANIRMVLEGLRELQGLKDLPEDRRREVF	soluble
STSPLSDLLNLDLSDTKKIIAEYIWIGGSGMDIRSKARTLPGPVSNPTKLPKWNYDGSSTDQAAGDDSEVILYPQAIFKDPFRKGNNILVMCDAYRPAGDPIPTNNRHKAVKIFDHPNVKAEEPWFGIEQGYTLLKKDVKWPLGWPLGGFPGPQGPYYCAVGADKAFGRDIVDAHYKACLYSGLSIGGANGEVMPGQWEFQISPTVGIGAGGQLWVARYILERITEICGVIVSFDPKPIQGDWNGAAAHTNFSTKSMRKDGGLDLIKEAIKKLEVKHKQHIAAYGEGNERRLTGKHETADINTFSWGVADRGASVRVGRDTEKEGKGYFEDRRPSSNMDPYLVTSMIAETTIL	soluble
SVCAAQNCQRPCKDKVDWVQCDGGCDEWFHQVCVGVSPEMAENEDYICINCA	soluble
SVCLFALQIPHDEAQLLALLQQVVQSHPSFKIEVRRRDKLFACNSSAFKKYLALQLWEKYQLKGKLVDPAITVHVEVTKEHFLIISES	not soluble
SVERIYQKKTQLEHILLRPDTYIGSVELVTQQMWVYDEDVGINYREVTFVPGLYKIFDEILVNAADNKQRDPKMSCIRVTIDPENNLISIWNNGKGIPVVEHKVEKMYVPALIFGQLLTSSNYDDDEKKVTGGRNGYGAKLCNIFSTKFTVETASREYKKMFKQTWMDNMGRAGEMELKPFNGEDYTCITFQPDLSKFKMQSLDKDIVALMVRRAYDIAGSTKDVKVFLNGNKLPVKGFRSYVDMYLKDKLDETGNSLKVIHEQVNHRWEVCLTMSEKGFQQISFVNSIATSKGGRHVDYVADQIVTKLVDVVKKKNKGGVAVKAHQVKNHMWIFVNALIENPTFDSQTKENMTLQPKSFGSTCQLSEKFIKAAIGCGIVESILNWVKFKAQVQLNKKCS	soluble
SVFYFTSSSVNSSAYTIYMGKDKYENEDLIKHGWPEDIWFHVDKLSSAHVYLRLHKGENIEDIPKEVLMDCAHLVKANSIQGCKMNNVNVVYTPWSNLKKTADMDVGQIGFHRQKDVKIVTVEKKVNEILNRLEKTKVERFPDLAAEKECRDREERNEKKAQIQEMKKREKEEMKKKREMDELRSYSSLMKVENMSSNQDGNDSDEFM	soluble
SVIGRIHSFESCGTVDGPGIRFITFFQGCLMRCLYCHNRDTWDTHGGKEVTVEDLMKEVVTYRHFMNASGGGVTASGGEAILQAEFVRDWFRACKKEGIHTCLDTNGFVRRYDPVIDELLEVTDLVMLDLKQMNDEIHQNLVGVSNHRTLEFAKYLANKNVKVWIRYVVVPGWSDDDDSAHRLGEFTRDMGNVEKIELLPYHELGKHKWVAMGEEYKLDGVKPPKKETMERVKGILEQYGHKVMF	soluble
SVTASRYYPQLMSLVGNVLRFLPAFVRMKQLISEHYVGAVMICDARIYSGSLLSPSYGWICDELMGGGGLHTMGTYIVDLLTHLTGRRAEKVHGLLKTFVRQNAAIRGIRHVTSDDFCFFQMLMGGGVCSTVTLNFNMPGAFVHEVMVVGSAGRLVARGADLYGQKNSATQEELLLRDSLAVGAGLPEQGPQDVPLLYLKGMVYMVQALRQSFQGQGDRRTWDRTPVSMAASFEDGLYMQSVVDAIKRSSRSGEWEAVEVLTEEPDTNQNLCEALQRNNL	soluble
SYEQLKGEWNRKSPNLSKCGEELGRLKLVLLELNFLPTTGTKLTKQQLILARDILEIGAQWSILRKDIPSFERYMAQLKCYYFDYKEQLPESAYMHQLLGLNLLFLLSQNRVAEFHTELERLPAKDIQTNVYIKHPVSLEQYLMEGSYNKVFLAKGNIPAESYTFFIDILLDTIRDEIAGCIEKAYEKILFTEATRILFFNTPKKMTDYAKKRGWVLGPNNYYSFASQQQKPEDTTIPSTELAKQVIEYARQLEMIV	soluble
TANKRHYLEKVSHQGIISALAFDQRGALKQMMAAHQEGEATVTQIETLKVLVSEELTPYASSILLDPEYGLLATKVRANQTGLLLAYEKTGYDATTTSRLPDCLVEWSVKRLKAAGADAIKFLLYYDVDGDEQINLQKQAYIERIGSECTAEDIPFFLELLSYDERISDNNSAAYAKLKPHKVNGAMSVFSDKRFGVDVLKVEVPVNMAYVEGFTEGEVHYSQAEAIKAFQDQEAASHLPYIYLSAGVSAKLFQETLYFAAAAGAQFSGVLCGRATWAGSVPVYITKGEDEARKWLCTEGFQNIDELNRVLEETASPWTEKI	not soluble
TATNHQGLPAVDSEILEMPPEKADGVVEGIDVNGPKAQLMLRYPDGKREQITLPEQAKLLALVKHVQSKGYPNERFELLTNFPRRKLSHLDYDITLQEAGLCPQETVFVQE	soluble
TCCHGHGHGHDHGHRHAPRPAVAAIGTLAGNAELRWSDLRIEAMDCPTEERLIRDALGRQPAVESLEFNLMQRLLRVQHRFDSVEPLQKLIAGLGMQAVPLDAGENTDGPSQAPA	not soluble
